How the values were obtained:
[1] = molecular target: GATA-1^S310A (human) (UniProt P15976); assay: co-IP
[2] = molecular target: GATA-1^S310A (human) (UniProt P15976)

Sequence of UniProt P15976 (P15976 whole entry S310A): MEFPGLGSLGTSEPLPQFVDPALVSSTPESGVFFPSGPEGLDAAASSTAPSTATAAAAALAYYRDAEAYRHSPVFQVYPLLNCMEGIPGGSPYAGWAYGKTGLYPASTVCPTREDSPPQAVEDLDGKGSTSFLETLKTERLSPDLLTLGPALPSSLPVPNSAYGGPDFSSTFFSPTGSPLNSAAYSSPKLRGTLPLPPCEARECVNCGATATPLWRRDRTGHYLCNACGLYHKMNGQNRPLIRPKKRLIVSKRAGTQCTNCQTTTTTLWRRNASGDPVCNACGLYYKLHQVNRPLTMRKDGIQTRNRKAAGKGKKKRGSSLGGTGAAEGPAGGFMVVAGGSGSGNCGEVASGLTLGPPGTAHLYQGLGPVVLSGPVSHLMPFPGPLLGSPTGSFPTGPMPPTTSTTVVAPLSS

rate of binding to FOG-1 [1]: 62 | relative affinity against wild-type GATA-1 (fold less) [2]: 25 fold
Substance: FOG-1 (mouse), in NIH-3T3 cells (from UniProt O35615 1-995) (natural protein)
